Test results from US20130142802A1.

How the values were obtained:
[1] = target: native FGFR2-IIIc on rat prostate cancer cell line AT3B-1 (rat) (UniProt F1LNW0); test: flow cytometry on rat prostate cancer cell line AT3B-1; marker M1 9-7844, 1840 of 15000 events; the panel without primary antibody also prints 12.27
[2] = target: native FGFR2-IIIc on rat prostate cancer cell line AT3B-1 (rat) (UniProt F1LNW0); test: flow cytometry on AT3B-1 cells; no-primary control 11%

human IgG (negative control) (antibody) showed a %Gated (marker M1) [1] of 12.3% and a % positive staining of the cell population [2] of 12%.
